Results taken from PMC9712106.

Assays:
[1] = molecular target: PfRipr (residues 20 to 1086) (P. falciparum) (UniProt O97302); assay: BLI; PfRipr or PfPTRAMP at 20 μg/ml immobilised on Anti-Penta-His (His1K) biosensors, twofold dilution series of PTRAMP–CSS or PfCSS; 25 °C, PBS pH 7.4, 0.1% BSA, 0.02% Tween-20; 1:1 model
[2] = molecular target: PfPTRAMP (residues 25 to 309) with a C-terminal His-tag (P. falciparum); assay: as above

## PTRAMP–CSS heterodimer (disulfide-linked PfPTRAMP 42–309 and PfCSS 20–290) (complex)
[1]
  Kd: 3.6 µM

## PfCSS (residues 20 to 290) (domain or fragment)
[2]
  Kd: 19 µM
[1]
  Kd: 1.1 µM
